Laboratory results: article PMC10397247

T1: AP5-AA
T1 chain: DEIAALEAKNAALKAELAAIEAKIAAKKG

T2: AP6-AA
T2 chain: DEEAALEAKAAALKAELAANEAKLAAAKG

T3: AP7-AA
T3 chain: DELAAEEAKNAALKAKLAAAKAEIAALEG

T4: AP8-AA
T4 chain: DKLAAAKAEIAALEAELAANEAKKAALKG

T5: P1-AA
T5 chain: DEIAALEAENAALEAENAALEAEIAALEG

T6: P10-AA
T6 chain: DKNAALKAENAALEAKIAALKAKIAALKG

T7: P11-AA
T7 chain: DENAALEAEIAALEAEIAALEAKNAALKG

T8: P12-AA
T8 chain: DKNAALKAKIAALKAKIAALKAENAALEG

T9: P2-AA-12HGe-A
T9 chain: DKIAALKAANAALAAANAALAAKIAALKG

T10: P2-AA-12HGe-D
T10 chain: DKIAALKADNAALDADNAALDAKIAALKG

T11: P2-AA-12HGe-E
T11 chain: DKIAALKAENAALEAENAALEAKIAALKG

T12: P2-AA-12HGe-H
T12 chain: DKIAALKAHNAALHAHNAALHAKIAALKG

T13: P2-AA-12HGe-M
T13 chain: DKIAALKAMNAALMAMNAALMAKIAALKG

T14: P2-AA-12HGe-Q
T14 chain: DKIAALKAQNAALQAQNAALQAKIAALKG

T15: P2-AA-12HGe-R
T15 chain: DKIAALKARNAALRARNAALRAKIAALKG

T16: P2-AA-12HGe-S
T16 chain: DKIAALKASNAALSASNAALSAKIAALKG

T17: P2-AA-12HGe-T
T17 chain: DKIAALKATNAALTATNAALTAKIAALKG

T18: P2-AA-12HGe-W
T18 chain: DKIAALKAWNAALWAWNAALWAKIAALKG

T19: P2-AA
T19 chain: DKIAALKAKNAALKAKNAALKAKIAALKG

T20: P3-AA
T20 chain: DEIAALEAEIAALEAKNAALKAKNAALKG

T21: P4-AA
T21 chain: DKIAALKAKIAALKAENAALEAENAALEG

T22: P7-AA
T22 chain: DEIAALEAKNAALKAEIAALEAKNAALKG

T23: P8-AA
T23 chain: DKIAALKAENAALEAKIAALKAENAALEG

T24: P9-AA
T24 chain: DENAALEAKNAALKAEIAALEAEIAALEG


Biological target: T1, AP5-AA
Assay: two-hybrid library CCmax;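 also: natural log of median RNA to DNA barcode read ratio; higher means stronger binding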
Conditions: not given

Row | interaction score | Binder
1 | -0.918 | DEIAALEAKNAALKAELAAIEAKIAAKKG [AP5-AA]

Biological target: T2, AP6-AA
Assay: two-hybrid library CCmax;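 also: natural log of median RNA to DNA barcode read ratio; higher means stronger binding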
Conditions: mean of both orientations

Row | interaction score | Binder
2 | 1.53 | DEIAALEAKNAALKAELAAIEAKIAAKKG [AP5-AA]

Biological target: T3, AP7-AA
Assay: two-hybrid library CCmax;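 also: natural log of median RNA to DNA barcode read ratio; higher means stronger binding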
Conditions: mean of both orientations

Row | interaction score | Binder
3 | -1.69 | DEIAALEAKNAALKAELAAIEAKIAAKKG [AP5-AA]

Biological target: T4, AP8-AA
Assay: two-hybrid library CCmax;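 also: natural log of median RNA to DNA barcode read ratio; higher means stronger binding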
Conditions: mean of both orientations

Row | interaction score | Binder
4 | -1.08 | DEIAALEAKNAALKAELAAIEAKIAAKKG [AP5-AA]

biological target: GCN2_T; assay: two-hybrid library CCmax; conditions: not given;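 also: natural log of median RNA to DNA barcode read ratio; higher means stronger binding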

Row | interaction score | Binder
5 | -0.794 | DEIAALEAKNAALKAELAAIEAKIAAKKG [AP5-AA]

Biological target: T5, P1-AA
Assay: two-hybrid library CCmax;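 also: natural log of median RNA to DNA barcode read ratio; higher means stronger binding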
Conditions: mean of both orientations

Row | interaction score | Binder
6 | -1.35 | DEIAALEAKNAALKAELAAIEAKIAAKKG [AP5-AA]

Biological target: T6, P10-AA
Assay: two-hybrid library CCmax
Conditions: mean of both orientations

Row | interaction score | Binder
7 | 1.37 | DEIAALEAKNAALKAELAAIEAKIAAKKG [AP5-AA]

Biological target: T7, P11-AA
Assay: two-hybrid library CCmax
Conditions: mean of both orientations

Row | interaction score | Binder
8 | -0.907 | DEIAALEAKNAALKAELAAIEAKIAAKKG [AP5-AA]

Biological target: T8, P12-AA
Assay: two-hybrid library CCmax
Conditions: mean of both orientations

Row | interaction score | Binder
9 | -1.41 | DEIAALEAKNAALKAELAAIEAKIAAKKG [AP5-AA]

Biological target: T9, P2-AA-12HGe-A
Assay: two-hybrid library CCmax
Conditions: mean of both orientations

Row | interaction score | Binder
10 | 1.75 | DEIAALEAWNAALWAWNAALWAEIAALEG [P1-AA-12HGe-W]
11 | 1.68 | DEIAALEARNAALRARNAALRAEIAALEG [P1-AA-12HGe-R]
12 | 0.941 | DEIAALEATNAALTATNAALTAEIAALEG [P1-AA-12HGe-T]

The remaining lines, values behind:

Row | Binder | interaction score
13 | DEIAALEAQNAALQAQNAALQAEIAALEG [P1-AA-12HGe-Q] | 1.99
14 | DEIAALEADNAALDADNAALDAEIAALEG [P1-AA-12HGe-D] | -2.7

Biological target: T10, P2-AA-12HGe-D
Assay: two-hybrid library CCmax
Conditions: mean of both orientations

Row | interaction score | Binder
15 | -1.76 | DEIAALEAWNAALWAWNAALWAEIAALEG [P1-AA-12HGe-W]
16 | 1.05 | DEIAALEARNAALRARNAALRAEIAALEG [P1-AA-12HGe-R]
17 | -1.6 | DEIAALEATNAALTATNAALTAEIAALEG [P1-AA-12HGe-T]

Continued, binder first:

Row | Binder | interaction score
18 | DEIAALEAQNAALQAQNAALQAEIAALEG [P1-AA-12HGe-Q] | -1.92
19 | DEIAALEADNAALDADNAALDAEIAALEG [P1-AA-12HGe-D] | -1.75

Biological target: T11, P2-AA-12HGe-E
Assay: two-hybrid library CCmax
Conditions: mean of both orientations

Row | interaction score | Binder
20 | 1.5 | DEIAALEAWNAALWAWNAALWAEIAALEG [P1-AA-12HGe-W]
21 | 2.08 | DEIAALEARNAALRARNAALRAEIAALEG [P1-AA-12HGe-R]
22 | 1.26 | DEIAALEATNAALTATNAALTAEIAALEG [P1-AA-12HGe-T]

The next lines start with the binder.

Row | Binder | interaction score
23 | DEIAALEAQNAALQAQNAALQAEIAALEG [P1-AA-12HGe-Q] | 2.09
24 | DEIAALEADNAALDADNAALDAEIAALEG [P1-AA-12HGe-D] | -1.55

Biological target: T12, P2-AA-12HGe-H
Assay: two-hybrid library CCmax
Conditions: mean of both orientations

Row | interaction score | Binder
25 | -1.02 | DEIAALEAWNAALWAWNAALWAEIAALEG [P1-AA-12HGe-W]
26 | -0.986 | DEIAALEARNAALRARNAALRAEIAALEG [P1-AA-12HGe-R]
27 | -1.51 | DEIAALEATNAALTATNAALTAEIAALEG [P1-AA-12HGe-T]

Continued, binder first:

Row | Binder | interaction score
28 | DEIAALEAQNAALQAQNAALQAEIAALEG [P1-AA-12HGe-Q] | 0.459
29 | DEIAALEADNAALDADNAALDAEIAALEG [P1-AA-12HGe-D] | -1.41

Biological target: T13, P2-AA-12HGe-M
Assay: two-hybrid library CCmax
Conditions: mean of both orientations

Row | interaction score | Binder
30 | 0.936 | DEIAALEAWNAALWAWNAALWAEIAALEG [P1-AA-12HGe-W]
31 | -0.0699 | DEIAALEARNAALRARNAALRAEIAALEG [P1-AA-12HGe-R]
32 | -0.103 | DEIAALEATNAALTATNAALTAEIAALEG [P1-AA-12HGe-T]

The next lines start with the binder.

Row | Binder | interaction score
33 | DEIAALEAQNAALQAQNAALQAEIAALEG [P1-AA-12HGe-Q] | 1.64
34 | DEIAALEADNAALDADNAALDAEIAALEG [P1-AA-12HGe-D] | -2.19

Biological target: T14, P2-AA-12HGe-Q
Assay: two-hybrid library CCmax
Conditions: mean of both orientations

Row | interaction score | Binder
35 | 1.69 | DEIAALEAWNAALWAWNAALWAEIAALEG [P1-AA-12HGe-W]
36 | 1.28 | DEIAALEARNAALRARNAALRAEIAALEG [P1-AA-12HGe-R]
37 | 0.761 | DEIAALEATNAALTATNAALTAEIAALEG [P1-AA-12HGe-T]

The remaining lines, values behind:

Row | Binder | interaction score
38 | DEIAALEAQNAALQAQNAALQAEIAALEG [P1-AA-12HGe-Q] | 1.8
39 | DEIAALEADNAALDADNAALDAEIAALEG [P1-AA-12HGe-D] | -1.62

Biological target: T15, P2-AA-12HGe-R
Assay: two-hybrid library CCmax
Conditions: mean of both orientations

Row | interaction score | Binder
40 | 0.108 | DEIAALEAWNAALWAWNAALWAEIAALEG [P1-AA-12HGe-W]
41 | -0.893 | DEIAALEARNAALRARNAALRAEIAALEG [P1-AA-12HGe-R]
42 | -0.61 | DEIAALEATNAALTATNAALTAEIAALEG [P1-AA-12HGe-T]

The remaining lines, values behind:

Row | Binder | interaction score
43 | DEIAALEAQNAALQAQNAALQAEIAALEG [P1-AA-12HGe-Q] | 1.56
44 | DEIAALEADNAALDADNAALDAEIAALEG [P1-AA-12HGe-D] | 1.33

Biological target: T16, P2-AA-12HGe-S
Assay: two-hybrid library CCmax
Conditions: mean of both orientations

Row | interaction score | Binder
45 | -0.243 | DEIAALEAWNAALWAWNAALWAEIAALEG [P1-AA-12HGe-W]
46 | 1.19 | DEIAALEARNAALRARNAALRAEIAALEG [P1-AA-12HGe-R]
47 | -0.683 | DEIAALEATNAALTATNAALTAEIAALEG [P1-AA-12HGe-T]

Continued, binder first:

Row | Binder | interaction score
48 | DEIAALEAQNAALQAQNAALQAEIAALEG [P1-AA-12HGe-Q] | 0.227
49 | DEIAALEADNAALDADNAALDAEIAALEG [P1-AA-12HGe-D] | -1.99

Biological target: T17, P2-AA-12HGe-T
Assay: two-hybrid library CCmax
Conditions: mean of both orientations

Row | interaction score | Binder
50 | -0.385 | DEIAALEAWNAALWAWNAALWAEIAALEG [P1-AA-12HGe-W]
51 | 0.3 | DEIAALEARNAALRARNAALRAEIAALEG [P1-AA-12HGe-R]
52 | -0.824 | DEIAALEATNAALTATNAALTAEIAALEG [P1-AA-12HGe-T]

The remaining lines, values behind:

Row | Binder | interaction score
53 | DEIAALEAQNAALQAQNAALQAEIAALEG [P1-AA-12HGe-Q] | 1.03
54 | DEIAALEADNAALDADNAALDAEIAALEG [P1-AA-12HGe-D] | -1.52

Biological target: T18, P2-AA-12HGe-W
Assay: two-hybrid library CCmax
Conditions: mean of both orientations

Row | interaction score | Binder
55 | -0.0819 | DEIAALEAWNAALWAWNAALWAEIAALEG [P1-AA-12HGe-W]
56 | -1.15 | DEIAALEARNAALRARNAALRAEIAALEG [P1-AA-12HGe-R]
57 | -1.56 | DEIAALEATNAALTATNAALTAEIAALEG [P1-AA-12HGe-T]

More lines, now with the values behind:

Row | Binder | interaction score
58 | DEIAALEAQNAALQAQNAALQAEIAALEG [P1-AA-12HGe-Q] | -0.264
59 | DEIAALEADNAALDADNAALDAEIAALEG [P1-AA-12HGe-D] | -2.14

Biological target: T19, P2-AA
Assay: two-hybrid library CCmax
Conditions: mean of both orientations

Row | interaction score | Binder
60 | -1.08 | DEIAALEAWNAALWAWNAALWAEIAALEG [P1-AA-12HGe-W]
61 | -0.71 | DEIAALEARNAALRARNAALRAEIAALEG [P1-AA-12HGe-R]
62 | -0.397 | DEIAALEATNAALTATNAALTAEIAALEG [P1-AA-12HGe-T]

Further lines, the binder ahead of its results:

Row | Binder | interaction score
63 | DEIAALEAQNAALQAQNAALQAEIAALEG [P1-AA-12HGe-Q] | 1.92
64 | DEIAALEADNAALDADNAALDAEIAALEG [P1-AA-12HGe-D] | 1.36
65 | DEIAALEAKNAALKAELAAIEAKIAAKKG [AP5-AA] | -1.24

Biological target: T20, P3-AA
Assay: two-hybrid library CCmax
Conditions: mean of both orientations

Row | interaction score | Binder
66 | -1.62 | DEIAALEAKNAALKAELAAIEAKIAAKKG [AP5-AA]

Biological target: T21, P4-AA
Assay: two-hybrid library CCmax
Conditions: mean of both orientations

Row | interaction score | Binder
67 | -0.912 | DEIAALEAKNAALKAELAAIEAKIAAKKG [AP5-AA]

Biological target: T22, P7-AA
Assay: two-hybrid library CCmax
Conditions: mean of both orientations

Row | interaction score | Binder
68 | -0.672 | DEIAALEAKNAALKAELAAIEAKIAAKKG [AP5-AA]

Biological target: T23, P8-AA
Assay: two-hybrid library CCmax
Conditions: mean of both orientations

Row | interaction score | Binder
69 | 2.11 | DEIAALEAKNAALKAELAAIEAKIAAKKG [AP5-AA]

Biological target: T24, P9-AA
Assay: two-hybrid library CCmax
Conditions: mean of both orientations

Row | interaction score | Binder
70 | -0.644 | DEIAALEAKNAALKAELAAIEAKIAAKKG [AP5-AA]
